Data on two molecules can be found in article PMC2173740 (The Journal of Cell Biology, 2003).

Test [1] addresses 86-kD fragment of Toc159 (pea (endogenous in pea chloroplast outer envelope)). Description: subunit quantification by immunoblot. A general note: In western blotting, separated proteins are transferred to a membrane and probed.
The target is the same in test [2]. Description: subunit quantification by Coomassie staining.
The target is the same in test [3]. Description: subunit quantification by radioactive NEM labelling of cysteines.
The next test concerns the target T1, Toc75 (pea (endogenous in pea chloroplast …, UniProt Q43715 132-809)).
T1 sequence (looked up): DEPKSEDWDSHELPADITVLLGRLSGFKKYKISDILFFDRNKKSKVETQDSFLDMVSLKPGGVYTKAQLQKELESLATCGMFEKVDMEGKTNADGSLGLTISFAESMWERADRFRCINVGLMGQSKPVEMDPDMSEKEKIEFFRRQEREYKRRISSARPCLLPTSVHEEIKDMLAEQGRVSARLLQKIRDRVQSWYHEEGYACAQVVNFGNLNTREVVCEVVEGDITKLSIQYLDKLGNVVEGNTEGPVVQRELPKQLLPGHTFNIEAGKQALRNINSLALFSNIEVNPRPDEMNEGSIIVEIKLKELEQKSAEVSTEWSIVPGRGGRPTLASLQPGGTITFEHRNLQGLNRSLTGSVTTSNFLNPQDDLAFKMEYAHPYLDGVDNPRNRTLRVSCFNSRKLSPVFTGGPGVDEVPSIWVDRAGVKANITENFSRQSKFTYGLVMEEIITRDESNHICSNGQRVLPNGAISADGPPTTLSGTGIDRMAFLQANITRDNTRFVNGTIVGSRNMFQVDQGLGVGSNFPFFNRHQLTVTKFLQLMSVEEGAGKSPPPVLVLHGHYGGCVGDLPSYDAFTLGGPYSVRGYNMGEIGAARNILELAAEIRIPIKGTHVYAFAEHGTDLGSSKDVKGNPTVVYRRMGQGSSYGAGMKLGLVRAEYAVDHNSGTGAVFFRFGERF
Description: co-sedimentation.

Where “and” joins values, the source holds several entries; their conditions need not be identical. Equal values may be shown once.

B1: Toc75 (natural protein)
chain: T1 sequence (looked up)
On to B1, for which the stoichiometry N (molecules per Toc159) is 4 to 5 in test [1], 4 in test [2] and 4 in test [3].

B2: Toc34 (natural protein, UniProt Q41009 1-310, looked up)
chain: MASQQQTVREWSGINTFAPATQTKLLELLGNLKQEDVNSLTILVMGKGGVGKSSTVNSIIGERVVSISPFQSEGPRPVMVSRSRAGFTLNIIDTPGLIEGGYINDMALNIIKSFLLDKTIDVLLYVDRLDAYRVDNLDKLVAKAITDSFGKGIWNKAIVALTHAQFSPPDGLPYDEFFSKRSEALLQVVRSGASLKKDAQASDIPVVLIENSGRCNKNDSDEKVLPNGIAWIPHLVQTITEVALNKSESIFVDKNLIDGPNPNQRGKLWIPLIFALQYLFLAKPIEALIRRDIATETKPAWETRDVGDRK
Regarding B2, the stoichiometry N (molecules per Toc159) is 4 and 6 in test [1]; 4 to 6 in test [2]; 4 to 5 in test [3]. The binding result with Toc75 is recorded as “binds”.
